According to patent US20170165338A1:

These binders were tested against HLA-A*02 (human) (assay: UV-exchange b2m ELISA).

Row | Binder | peptide exchange yield
1 | KMPDVELFV | 50 to 75%
2 | ALHFSEDEI | 20 to 49%
3 | LLVSHLYLV | 20 to 49%
4 | ILGDLSHLL | 50 to 75%
5 | SLGKFTFDV | > 75%
6 | ILNTHITEL | 50 to 75%
7 | QLAPVFQRV | 20 to 49%
8 | FLERGLESA | 20 to 49%
9 | GLLFSLRSV | > 75%
10 | RLFPDFFTRVAL | 20 to 49%
11 | KLQNIMMLL | 20 to 49%
12 | AIVDLIHDI | 20 to 49%
13 | QLIQTLHAV | 50 to 75%
14 | KVMATIEKV | 20 to 49%
15 | TIYKDFVYI | 20 to 49%
16 | ILLKNLVTI | 20 to 49%
17 | ALLGTKILL | 50 to 75%
18 | YLLQSVNQLLL | 20 to 49%
19 | YLMDDTVEI | > 75%
20 | ILGEVLAQL | 50 to 75%
21 | TLTSLLAQA | 50 to 75%
22 | ALLAKILQI | 50 to 75%
23 | SLDPDTLPAV | 20 to 49%
24 | SVDSHFQEV | 20 to 49%
25 | HLSTIIHEA | 50 to 75%

Row | Binder | peptide exchange yield
26 | ALLAFFPGL | 50 to 75%
27 | VLLDIQEVFQI | 50 to 75%
28 | VLDPALPALV | 20 to 49%
29 | FLFGGVLMTL | 20 to 49%
30 | MMVGDLLEV | 50 to 75%
31 | ALCPRIHEV | > 75%
32 | VLYDRPLKI | 50 to 75%
33 | FIIQGLRSVGA | 50 to 75%
34 | VTPVTVSAV | < 20%
35 | LLNPVVEFV | 50 to 75%
36 | QLWQFLVTL | 50 to 75%
37 | FLLPTGAEA | 20 to 49%
38 | MLAGIAITV | 50 to 75%
39 | SLLGGTFVGI | 50 to 75%
40 | AQADHLPQL | 20 to 49%
41 | ALLPELREV | 50 to 75%
42 | ALADFMLSL | 50 to 75%
43 | YLVSEIFKA | 50 to 75%
44 | TQSPATLSV | 20 to 49%
45 | VTSNSGILGV | 50 to 75%
46 | GLLGSLFFL | > 75%
47 | GVVDPVHGV | 20 to 49%
48 | RLLGTEFQV | 50 to 75%
49 | FIFDEAEKL | < 20%
50 | RLQDILWFL | > 75%

Row | Binder | peptide exchange yield
51 | LLVPTSGIYFV | 50 to 75%
52 | FLDKVLVAA | 50 to 75%
53 | AILAHLNTV | > 75%
54 | SVLDSTAKV | 20 to 49%
55 | KIIDFLSAL | 50 to 75%
56 | FTIFRTISV | 50 to 75%
57 | FLLGVSKEV | 50 to 75%
58 | QMFQYFITV | > 75%
59 | ALLGMIIVGV | < 20%
60 | ALLPRLHQL | > 75%
61 | FLQDLEQRL | 50 to 75%
62 | KLDGNELDL | 50 to 75%
63 | ALISWQPPRA | 50 to 75%
64 | SLDPSVTHL | 20 to 49%
65 | FINDSIVYL | 50 to 75%
66 | ILVEGISTV | 50 to 75%
67 | SLADYEHFV | > 75%
68 | FISERVEVV | > 75%
69 | YLWATIQRI | 50 to 75%
70 | LLLPAVPVGA | 50 to 75%
71 | VLNDILVRA | 50 to 75%
72 | GQASYFYVA | 20 to 49%
73 | GLAVPTPSV | 50 to 75%

These binders were tested against HLA-A*24 (human) (assay: UV-exchange b2m ELISA).

Row | Binder | peptide exchange yield
74 | TYTTVPRVAF | > 75%
75 | VYPWLGALL | > 75%
